Source: US20020147146A1
Blank lines part the entries; values can stand above or below the molecule they belong to. Non-standard residues stand in square brackets, D forms with d. No end group written: not given here. pS = N[C@@H](COP(=O)(O)O)C(=O)O

Tests used:
[1] = system: T1, 9CREB ILSRRPSYR (non-phosphorylated peptide)
T1 sequence: ILSRRPSYR

[2] = system: T2, peptide #1 KRREILSRRPS(p)YR (derived from CREB protein)
T2 sequence: KRREILSRRPSYR

[3] = system: T3, peptide #2 KRREILSRRPSYR (non-phosphorylated CREB peptide)
T3 sequence: KRREILSRRPSYR

[4] = system: T4, peptide #3 ILSRRPS(p)YR (p9CREB)
T4 sequence: ILSRRPSYR

[5] = system: T5, peptide #4 ILSRRPEYR (9ECREB)
T5 sequence: ILSRRPEYR

[6] = target: purified recombinant rabbit GSK-3 (glycogen synthase kinase-3) (rabbit); assay: cell-based or functional assay
[7] = target: purified recombinant rabbit GSK-3 (glycogen synthase kinase-3) (rabbit); assay: in vitro kinase assay of purified GSK-3 with PGS-1 substrate and 32P-ATP, Lineweaver-Burk analysis (competitive inhibition)

Molecule: purified recombinant rabbit GSK-3 (glycogen synthase kinase-3)
time course of peptide phosphorylation by GSK-3 [1]: 9CREB and 9ECREB completely failed to be phosphorylated by GSK-3 | kinetic property (phosphorylation by GSK-3) [2]: A substrate | kinetic property (phosphorylation by GSK-3) [3]: Not a substrate | kinetic property (phosphorylation by GSK-3) [4]: A substrate | time course of peptide phosphorylation by GSK-3 [4]: only the phosphorylated peptide, p9CREB, was a substrate for GSK-3 | time course of peptide phosphorylation by GSK-3 [5]: 9CREB and 9ECREB completely failed to be phosphorylated by GSK-3

Molecule: KRREILARRP[pS]YR [peptide #5 …(p)YR]
IC50, inhibition of GSK-3 (in vitro kinase assay) [6]: 330 µM | IC50, inhibition of GSK-3 phosphorylation of PGS-1 substrate (32P incorporation) [6]: 150 µM

The next lines start with the values.

IC50, inhibition of GSK-3 (in vitro kinase assay) [6]: 250 µM
Molecule: KEEPPAPPQ[pS]P [peptide #7 …(p)P (patterned after HSF-1 protein)]

IC50, inhibition of GSK-3 (in vitro kinase assay) [6]: 190 µM | Ki [7]: 76 µM
Molecule: KEAPPAPPQ[pS]P [peptide #8 …(p)P]
